In PMC9957003, “Functional Analyses of Rare Germline Missense BRCA1 Variants Located within and outside Protein Domains with Known Functions” (Genes, 2023):

Experiments:
[1] = molecular target: T1, BARD1-V5 WT (BRCA1-Associated RING Domain protein 1) (UniProt Q99728 1-777); assay: co-IP; HEK293FT co-transfected with BRCA1 WT or variant and BARD1-V5; 2 mg lysate protein incubated 90 min at 4 °C with V5 antibody coupled to Dynabeads Protein G; non-denaturing elution; BRCA1 in the IP detected by anti-BRCA1 blot, normalised to the anti-V5 signal, % of WT; conditions: partners not purified
T1 construct: BARD1 (BRCA1-Associated RING Domain protein 1), wild type; also called pcDNA6.2-BARD1-V5; source: HEK293FT, transiently co-transfected, in lysate
T1 sequence (looked up): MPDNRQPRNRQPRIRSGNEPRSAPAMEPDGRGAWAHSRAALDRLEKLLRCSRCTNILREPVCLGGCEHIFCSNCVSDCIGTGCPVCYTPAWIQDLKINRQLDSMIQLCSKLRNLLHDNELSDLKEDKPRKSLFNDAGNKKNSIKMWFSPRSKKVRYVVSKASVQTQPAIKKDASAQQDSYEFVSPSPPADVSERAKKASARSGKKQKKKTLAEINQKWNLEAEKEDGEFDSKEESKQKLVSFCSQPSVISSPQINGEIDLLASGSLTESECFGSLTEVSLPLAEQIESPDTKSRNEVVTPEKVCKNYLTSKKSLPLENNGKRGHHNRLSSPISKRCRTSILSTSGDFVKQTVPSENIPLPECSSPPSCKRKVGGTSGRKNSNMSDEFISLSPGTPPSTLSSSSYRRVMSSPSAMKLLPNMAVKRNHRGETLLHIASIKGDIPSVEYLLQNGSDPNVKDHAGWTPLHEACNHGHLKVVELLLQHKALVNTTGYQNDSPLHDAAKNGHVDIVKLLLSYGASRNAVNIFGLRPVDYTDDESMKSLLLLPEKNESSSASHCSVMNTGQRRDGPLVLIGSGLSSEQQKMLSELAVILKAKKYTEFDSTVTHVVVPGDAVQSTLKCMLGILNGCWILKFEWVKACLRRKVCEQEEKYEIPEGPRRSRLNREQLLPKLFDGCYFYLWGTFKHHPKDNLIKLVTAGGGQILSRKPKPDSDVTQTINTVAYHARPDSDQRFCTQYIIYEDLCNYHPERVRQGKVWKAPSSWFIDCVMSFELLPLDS

[2] = molecular target: T2, Flag-PALB2 WT (Partner and Localiser of BRCA2) (UniProt Q86YC2 1-1186); assay: co-IP; HEK293FT co-transfected with BRCA1 WT or variant and Flag-PALB2; 2 mg lysate protein incubated 90 min at 4 °C with Flag antibody coupled to Dynabeads Protein G; non-denaturing elution; BRCA1 in the IP detected by anti-BRCA1 blot, normalised to the anti-Flag signal, % of WT; conditions: partners not purified
T2 construct: PALB2 (Partner and Localiser of BRCA2), wild type; printed both as Flag-PALB2 and as PALB2-Flag; also called PALB2-Flag; pDEST-FRT/T0-Flag-PALB2; source: HEK293FT, transiently co-transfected, in lysate
T2 sequence (looked up): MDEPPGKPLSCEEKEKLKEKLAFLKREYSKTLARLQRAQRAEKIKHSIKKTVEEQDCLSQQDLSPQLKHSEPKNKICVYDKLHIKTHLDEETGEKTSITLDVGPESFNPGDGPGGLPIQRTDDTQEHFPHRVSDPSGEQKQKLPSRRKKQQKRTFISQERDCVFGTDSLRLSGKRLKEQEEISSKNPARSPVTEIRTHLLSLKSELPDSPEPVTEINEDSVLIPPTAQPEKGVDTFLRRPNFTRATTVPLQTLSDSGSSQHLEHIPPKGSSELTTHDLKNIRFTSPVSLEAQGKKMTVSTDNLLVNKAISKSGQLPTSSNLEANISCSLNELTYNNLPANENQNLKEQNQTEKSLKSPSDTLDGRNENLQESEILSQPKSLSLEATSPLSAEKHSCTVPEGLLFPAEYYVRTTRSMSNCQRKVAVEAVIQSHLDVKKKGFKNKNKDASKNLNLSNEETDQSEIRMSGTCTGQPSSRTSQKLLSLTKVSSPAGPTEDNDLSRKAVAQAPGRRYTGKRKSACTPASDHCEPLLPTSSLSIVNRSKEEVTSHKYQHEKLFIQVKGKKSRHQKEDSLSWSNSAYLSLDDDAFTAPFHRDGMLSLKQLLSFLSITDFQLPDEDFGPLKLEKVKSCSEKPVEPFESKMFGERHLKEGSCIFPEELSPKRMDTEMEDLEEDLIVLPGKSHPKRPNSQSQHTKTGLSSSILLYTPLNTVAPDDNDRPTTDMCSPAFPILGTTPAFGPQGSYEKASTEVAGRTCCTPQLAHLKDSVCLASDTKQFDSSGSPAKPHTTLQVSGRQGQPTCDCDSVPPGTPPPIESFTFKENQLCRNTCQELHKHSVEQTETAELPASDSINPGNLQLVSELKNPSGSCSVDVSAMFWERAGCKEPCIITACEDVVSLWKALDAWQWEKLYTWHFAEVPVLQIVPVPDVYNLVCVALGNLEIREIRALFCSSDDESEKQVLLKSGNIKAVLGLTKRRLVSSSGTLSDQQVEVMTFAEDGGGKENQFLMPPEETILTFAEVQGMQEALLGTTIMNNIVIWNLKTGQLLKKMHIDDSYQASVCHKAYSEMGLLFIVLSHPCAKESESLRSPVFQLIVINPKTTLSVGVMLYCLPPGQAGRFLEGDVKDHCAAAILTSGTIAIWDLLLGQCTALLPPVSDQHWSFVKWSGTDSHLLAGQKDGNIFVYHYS

B1: BRCA1 p.Arg504Cys (full-length, mCherry-tagged) (natural protein, human, UniProt P38398 1-1863, looked up)
chain: MDLSALRVEEVQNVINAMQKILECPICLELIKEPVSTKCDHIFCKFCMLKLLNQKKGPSQCPLCKNDITKRSLQESTRFSQLVEELLKIICAFQLDTGLEYANSYNFAKKENNSPEHLKDEVSIIQSMGYRNRAKRLLQSEPENPSLQETSLSVQLSNLGTVRTLRTKQRIQPQKTSVYIELGSDSSEDTVNKATYCSVGDQELLQITPQGTRDEISLDSAKKAACEFSETDVTNTEHHQPSNNDLNTTEKRAAERHPEKYQGSSVSNLHVEPCGTNTHASSLQHENSSLLLTKDRMNVEKAEFCNKSKQPGLARSQHNRWAGSKETCNDRRTPSTEKKVDLNADPLCERKEWNKQKLPCSENPRDTEDVPWITLNSSIQKVNEWFSRSDELLGSDDSHDGESESNAKVADVLDVLNEVDEYSGSSEKIDLLASDPHEALICKSERVHSKSVESNIEDKIFGKTYRKKASLPNLSHVTENLIIGAFVTEPQIIQERPLTNKLKCKRRPTSGLHPEDFIKKADLAVQKTPEMINQGTNQTEQNGQVMNITNSGHENKTKGDSIQNEKNPNPIESLEKESAFKTKAEPISSSISNMELELNIHNSKAPKKNRLRRKSSTRHIHALELVVSRNLSPPNCTELQIDSCSSSEEIKKKKYNQMPVRHSRNLQLMEGKEPATGAKKSNKPNEQTSKRHDSDTFPELKLTNAPGSFTKCSNTSELKEFVNPSLPREEKEEKLETVKVSNNAEDPKDLMLSGERVLQTERSVESSSISLVPGTDYGTQESISLLEVSTLGKAKTEPNKCVSQCAAFENPKGLIHGCSKDNRNDTEGFKYPLGHEVNHSRETSIEMEESELDAQYLQNTFKVSKRQSFAPFSNPGNAEEECATFSAHSGSLKKQSPKVTFECEQKEENQGKNESNIKPVQTVNITAGFPVVGQKDKPVDNAKCSIKGGSRFCLSSQFRGNETGLITPNKHGLLQNPYRIPPLFPIKSFVKTKCKKNLLEENFEEHSMSPEREMGNENIPSTVSTISRNNIRENVFKEASSSNINEVGSSTNEVGSSINEIGSSDENIQAELGRNRGPKLNAMLRLGVLQPEVYKQSLPGSNCKHPEIKKQEYEEVVQTVNTDFSPYLISDNLEQPMGSSHASQVCSETPDDLLDDGEIKEDTSFAENDIKESSAVFSKSVQKGELSRSPSPFTHTHLAQGYRRGAKKLESSEENLSSEDEELPCFQHLLFGKVNNIPSQSTRHSTVATECLSKNTEENLLSLKNSLNDCSNQVILAKASQEHHLSEETKCSASLFSSQCSELEDLTANTNTQDPFLIGSSKQMRHQSESQGVGLSDKELVSDDEERGTGLEENNQEEQSMDSNLGEAASGCESETSVSEDCSGLSSQSDILTTQQRDTMQHNLIKLQQEMAELEAVLEQHGSQPSNSYPSIISDSSALEDLRNPEQSTSEKAVLTSQKSSEYPISQNPEGLSADKFEVSADSSTSKNKEPGVERSSPSKCPSLDDRWYMHSCSGSLQNRNYPSQEELIKVVDVEEQQLEESGPHDLTETSYLPRQDLEGTPYLESGISLFSDDPESDPSEDRAPESARVGNIPSSTSALKVPQLKVAESAQSPAAAHTTDTAGYNAMEESVSREKPELTASTERVNKRMSMVVSGLTPEEFMLVYKFARKHHITLTNLITEETTHVVMKTDAEFVCERTLKYFLGIAGGKWVVSYFWVTQSIKERKMLNEHDFEVRGDVVNGRNHQGPKRARESQDRKIFRGLEICCYGPFTNMPTDQLEWMVQLCGASVVKELSSFTLGTGVHPIVVVQPDAWTEDNGFHAIGQMCEAPVVTREWVLDSVALYQCQELDTYLIPQIPHSHY
notes: BRCA1, human, full-length, rare germline missense variant introduced in the WT plasmid; Made by site-directed mutagenesis of the plasmid of m1; also called c.1510C > T; source: HEK293FT, transiently co-transfected, in lysate
Co-IP BARD1 (% of WT) [1]: 63 % of WT | Co-IP PALB2 (% of WT) [2]: 65 % of WT

B2: BRCA1 p.Val1378Ile (full-length, mCherry-tagged; benign control variant, coiled-coil domain) (natural protein, human, UniProt P38398 1-1863, looked up)
chain: MDLSALRVEEVQNVINAMQKILECPICLELIKEPVSTKCDHIFCKFCMLKLLNQKKGPSQCPLCKNDITKRSLQESTRFSQLVEELLKIICAFQLDTGLEYANSYNFAKKENNSPEHLKDEVSIIQSMGYRNRAKRLLQSEPENPSLQETSLSVQLSNLGTVRTLRTKQRIQPQKTSVYIELGSDSSEDTVNKATYCSVGDQELLQITPQGTRDEISLDSAKKAACEFSETDVTNTEHHQPSNNDLNTTEKRAAERHPEKYQGSSVSNLHVEPCGTNTHASSLQHENSSLLLTKDRMNVEKAEFCNKSKQPGLARSQHNRWAGSKETCNDRRTPSTEKKVDLNADPLCERKEWNKQKLPCSENPRDTEDVPWITLNSSIQKVNEWFSRSDELLGSDDSHDGESESNAKVADVLDVLNEVDEYSGSSEKIDLLASDPHEALICKSERVHSKSVESNIEDKIFGKTYRKKASLPNLSHVTENLIIGAFVTEPQIIQERPLTNKLKRKRRPTSGLHPEDFIKKADLAVQKTPEMINQGTNQTEQNGQVMNITNSGHENKTKGDSIQNEKNPNPIESLEKESAFKTKAEPISSSISNMELELNIHNSKAPKKNRLRRKSSTRHIHALELVVSRNLSPPNCTELQIDSCSSSEEIKKKKYNQMPVRHSRNLQLMEGKEPATGAKKSNKPNEQTSKRHDSDTFPELKLTNAPGSFTKCSNTSELKEFVNPSLPREEKEEKLETVKVSNNAEDPKDLMLSGERVLQTERSVESSSISLVPGTDYGTQESISLLEVSTLGKAKTEPNKCVSQCAAFENPKGLIHGCSKDNRNDTEGFKYPLGHEVNHSRETSIEMEESELDAQYLQNTFKVSKRQSFAPFSNPGNAEEECATFSAHSGSLKKQSPKVTFECEQKEENQGKNESNIKPVQTVNITAGFPVVGQKDKPVDNAKCSIKGGSRFCLSSQFRGNETGLITPNKHGLLQNPYRIPPLFPIKSFVKTKCKKNLLEENFEEHSMSPEREMGNENIPSTVSTISRNNIRENVFKEASSSNINEVGSSTNEVGSSINEIGSSDENIQAELGRNRGPKLNAMLRLGVLQPEVYKQSLPGSNCKHPEIKKQEYEEVVQTVNTDFSPYLISDNLEQPMGSSHASQVCSETPDDLLDDGEIKEDTSFAENDIKESSAVFSKSVQKGELSRSPSPFTHTHLAQGYRRGAKKLESSEENLSSEDEELPCFQHLLFGKVNNIPSQSTRHSTVATECLSKNTEENLLSLKNSLNDCSNQVILAKASQEHHLSEETKCSASLFSSQCSELEDLTANTNTQDPFLIGSSKQMRHQSESQGVGLSDKELVSDDEERGTGLEENNQEEQSMDSNLGEAASGCESETSISEDCSGLSSQSDILTTQQRDTMQHNLIKLQQEMAELEAVLEQHGSQPSNSYPSIISDSSALEDLRNPEQSTSEKAVLTSQKSSEYPISQNPEGLSADKFEVSADSSTSKNKEPGVERSSPSKCPSLDDRWYMHSCSGSLQNRNYPSQEELIKVVDVEEQQLEESGPHDLTETSYLPRQDLEGTPYLESGISLFSDDPESDPSEDRAPESARVGNIPSSTSALKVPQLKVAESAQSPAAAHTTDTAGYNAMEESVSREKPELTASTERVNKRMSMVVSGLTPEEFMLVYKFARKHHITLTNLITEETTHVVMKTDAEFVCERTLKYFLGIAGGKWVVSYFWVTQSIKERKMLNEHDFEVRGDVVNGRNHQGPKRARESQDRKIFRGLEICCYGPFTNMPTDQLEWMVQLCGASVVKELSSFTLGTGVHPIVVVQPDAWTEDNGFHAIGQMCEAPVVTREWVLDSVALYQCQELDTYLIPQIPHSHY
notes: BRCA1, human, full-length, benign control missense variant in the coiled-coil domain, introduced in the WT plasmid; Made by site-directed mutagenesis of the plasmid of m1; also called c.4132G > A; source: HEK293FT, transiently co-transfected, in lysate
Co-IP PALB2 (% of WT) [2]: 72 % of WT
